Data: US6001988, “High affinity nucleic acid ligands to lectins” (NeXstar Pharmaceuticals, Inc.)

What was measured:
[1] = target: T1, L-selectin (LS-Rg) (Homo sapiens, UniProt P14151 P14151:39-332); assay: filter; 4 C, HSMC; conditions: tags: human IgG2 Fc fusion (provided by A. Varki); label: 32P; no stem
T1 chain: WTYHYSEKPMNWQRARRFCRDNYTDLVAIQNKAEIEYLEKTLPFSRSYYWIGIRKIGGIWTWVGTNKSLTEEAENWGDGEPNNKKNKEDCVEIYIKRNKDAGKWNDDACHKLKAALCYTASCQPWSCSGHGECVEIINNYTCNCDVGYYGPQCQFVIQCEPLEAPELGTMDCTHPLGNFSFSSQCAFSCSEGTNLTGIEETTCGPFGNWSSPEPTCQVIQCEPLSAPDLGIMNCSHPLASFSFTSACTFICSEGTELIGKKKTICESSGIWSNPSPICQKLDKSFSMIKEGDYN
Description: (§1) As described in SELEX Patent Applications, the nitrocellulose filter partitioning method was used to determine the affinity of RNA ligands for LS-Rg and for other proteins. Filter discs (nitrocellulose/cellulose acetate mixed matrix, 0.45 um pore size, Millipore) were placed on a vacuum manifold and washed with 2 ml of HSMC buffer under vacuum. Reaction mixtures, containing ^32P labeled RNA pools and unlabeled LS-Rg, were incubated in HSMC for 10–20 min at 4° C., room temperature or 37° C., filtered, and then immediately washed with 4 ml HSMC at the same temperature. The filters were air-dried and counted in a Beckman LS6500 liquid scintillation counter without fluor.
(§2) The dissociation constants for representative ligands from rounds 13 and 14, including all orphans, were determined by nitrocellulose filter binding experiments and are listed in Table IX. These calculations assume two RNA ligand binding sites per chimera. The affinity of random RNA cannot be reliably determined but is estimated to be approximately 10 µM.

[2] = target: T1, L-selectin (LS-Rg); assay: filter; 4 C, HSMC; 15.4 nM at room temp; conditions: tags: human IgG2 Fc fusion (provided by A. Varki); label: 32P; hairpin
Description: as §1, §2

[3] = target: T2, E-selectin (ES-Rg) (Homo sapiens, UniProt P16581 P16581:22-556); assay: filter; 4 C, HSMC; conditions: tags: human IgG1 Fc fusion (provided by A. Varki), chain copies: 2, label: 32P
T2 chain: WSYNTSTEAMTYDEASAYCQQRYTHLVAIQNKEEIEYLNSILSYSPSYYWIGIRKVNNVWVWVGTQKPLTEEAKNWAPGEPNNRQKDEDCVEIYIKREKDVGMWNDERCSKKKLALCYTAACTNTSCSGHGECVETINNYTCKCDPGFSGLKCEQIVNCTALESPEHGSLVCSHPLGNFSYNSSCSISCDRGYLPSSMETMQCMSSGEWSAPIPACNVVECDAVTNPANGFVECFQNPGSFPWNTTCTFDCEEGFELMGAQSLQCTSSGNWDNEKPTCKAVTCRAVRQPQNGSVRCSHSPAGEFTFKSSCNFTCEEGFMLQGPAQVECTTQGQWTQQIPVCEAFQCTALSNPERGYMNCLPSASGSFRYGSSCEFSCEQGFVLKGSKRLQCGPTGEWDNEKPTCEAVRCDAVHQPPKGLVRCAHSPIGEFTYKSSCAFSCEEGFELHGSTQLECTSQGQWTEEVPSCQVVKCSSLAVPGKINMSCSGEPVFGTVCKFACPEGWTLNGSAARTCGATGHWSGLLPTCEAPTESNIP
Description: as §1
(§3) The affinity of L-selectin ligands to ES-Rg, PS-Rg and CD22β-Rg were determined by nitrocellulose partitioning. […] In general, a ligand's affinity for ES-Rg is 10^3-fold lower and that for PS-Rg is about 10^4-fold less than for LS-Rg. […] The specificity of oligonucleotide ligand binding contrasts sharply with the binding of cognate carbohydrates by the selectins and confirms the assertion that SELEX ligands will have greater specificity than carbohydrate ligands.
(§4) *Dissociation constants were determined at 4° C. in HSMC buffer.

[4] = target: T1, L-selectin (LS-Rg); assay: filter; 4 C, HSMC; 5.5 nM at room temp; conditions: tags: human IgG2 Fc fusion (provided by A. Varki); label: 32P
Description: as §1, §2

[5] = target: T1, L-selectin (LS-Rg); assay: filter; 4 C, HSMC; 15.9 nM at room temp; conditions: tags: human IgG2 Fc fusion (provided by A. Varki); label: 32P; hairpin
Description: as §1, §2

[6] = target: T1, L-selectin (LS-Rg); assay: filter; 4 C, HSMC; 75 nM at room temp; conditions: tags: human IgG2 Fc fusion (provided by A. Varki); label: 32P; hairpin
Description: as §1, §2

[7] = target: T3, P-selectin (PS-Rg) (Homo sapiens, UniProt P16109 P16109:42-321); assay: filter; 4 C, HSMC; conditions: tags: human IgG1 Fc fusion (provided by A. Varki), chain copies: 2, label: 32P
T3 chain: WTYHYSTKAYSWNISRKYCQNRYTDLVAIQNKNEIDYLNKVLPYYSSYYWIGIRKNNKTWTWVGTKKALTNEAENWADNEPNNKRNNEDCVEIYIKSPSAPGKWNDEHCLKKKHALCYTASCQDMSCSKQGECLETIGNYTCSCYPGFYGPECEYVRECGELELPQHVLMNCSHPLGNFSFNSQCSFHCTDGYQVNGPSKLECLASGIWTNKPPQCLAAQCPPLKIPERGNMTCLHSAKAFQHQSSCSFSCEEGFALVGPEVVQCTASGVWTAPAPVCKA
Description: as §1, §3, §4

[8] = target: T1, L-selectin (LS-Rg); assay: filter; 4 C, HSMC; biphasic, fraction 0.65, low affinity Kd 14.5 nM; 142 nM at room temp; conditions: tags: human IgG2 Fc fusion (provided by A. Varki); label: 32P
Description: as §1, §2

[9] = target: T1, L-selectin (LS-Rg); assay: filter; 4 C, HSMC; 9.2 nM at room temp; conditions: tags: human IgG2 Fc fusion (provided by A. Varki); label: 32P; hairpin
Description: as §1, §2

[10] = target: T1, L-selectin (LS-Rg); assay: filter; 4 C, HSMC; 18 nM at room temp; conditions: tags: human IgG2 Fc fusion (provided by A. Varki); label: 32P
Description: as §1, §2

[11] = target: T4, wheat germ agglutinin (WGA) (Triticum vulgare, UniProt P10968 P10968:27-197); assay: filter; HBSS, room temp; 19.2 nM in Table IV; conditions: tags: free lectin, E Y Laboratories; label: 32P; hairpin
T4 sequence: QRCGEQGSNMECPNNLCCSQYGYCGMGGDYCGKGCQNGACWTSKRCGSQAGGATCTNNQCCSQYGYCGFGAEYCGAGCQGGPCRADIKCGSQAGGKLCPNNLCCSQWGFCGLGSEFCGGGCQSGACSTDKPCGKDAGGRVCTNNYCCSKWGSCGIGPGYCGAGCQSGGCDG
Description: The specifically eluted fraction was processed for use in the following round. Fractions eluted from immobilized WGA were heated at 90° C. for 5 minutes in 1% SDS, 2% β-mercaptoethanol and extracted with phenol/chloroform. RNA was reverse transcribed into cDNA by AMV reverse transcriptase at 48° C. for 60 min in 50 mM Tris-Cl pH (8.3), 60 mM NaCl, 6 mM Mg(OAc)_2, 10 mM DTT, 100 pmol DNA primer, 0.4 mM each of dNTPs, and 0.4 unit/µl AMV RT. […] C) Nitrocellulose Filter Partitioning As described in SELEX Patent Applications, the nitrocellulose filter partitioning method was used to determine the affinity of RNA ligands for WGA and for other proteins. Filter discs (nitrocellulose/cellulose acetate mixed matrix, 0.45 µm pore size, Millipore; or pure nitrocellulose, 0.45 µm pore size, Bio-Rad) were placed on a vacuum manifold and washed with 4 ml of HBSS buffer under vacuum. Reaction mixtures, containing ^32P labeled RNA pools and unlabeled WGA, were incubated in HBSS for 10 min at room temperature, filtered, and then immediately washed with 4 ml HBSS. The filters were air-dried and counted in a Beckman LS6500 liquid scintillation counter without fluor. WGA is a homodimer, molecular weight 43.2 kD, with 4 GlcNAc binding sites per dimer. For affinity calculations, we assume one RNA ligand binding site per monomer (two per dimer). […]

[12] = target: T1, L-selectin (LS-Rg); assay: filter; 4 C, HSMC; 14.9 nM at room temp; conditions: tags: human IgG2 Fc fusion (provided by A. Varki); label: 32P; hairpin
Description: as §1, §2

[13] = target: T1, L-selectin (LS-Rg); assay: filter; 4 C, HSMC; 1.5 nM at room temp; conditions: tags: human IgG2 Fc fusion (provided by A. Varki); label: 32P
Description: as §1, §2

B1: F14.25 (ssRNA)
RNA: GGGAGGACGAUGCGGUAGAGGUAGUAUGUGUGGGAGAUGAAAAUACUGUGGAAAGCAGACGACUCGCCCGA
modifications: 2'-NH2 all C and U
Kd [1]: 1300 nM

B2: F14.9 (ssRNA)
RNA: GGGAGGACGAUGCGGAAACCUUGAUGUGUGAUAGAGCAUCCCCCAGGCGACGUACCAGACGACUCGCCCGA
modifications: 2'-NH2 all C and U
Kd [2]: 8.2 nM

B3: F13.42 (ssRNA)
RNA: GGGAGGACGAUGCGGGAUGUAAAUGACAAAUGAACCUCGAAAGAUUGCACACUCCAGACGACUCGCCCGA
modifications: 2'-NH2 all C and U
Kd [3]: 4400 nM
Kd [4]: 2 nM

B4: F14.21 (ssRNA)
RNA: GGGAGGACGAUGCGGUUGAGAUGUGUGAGUACAAGCUCAAAAUCCCGUUGGAGGCAGACGACUCGCCCGA
modifications: 2'-NH2 all C and U
Kd [5]: 2.3 nM
Kd ([3]; hairpin): 2600 nM

B5: F13.57 (ssRNA)
RNA: GGGAGGACGAUGCGGUAACAUAAAGUAGCGCGUCUGUGAGAGGAAGUGCCUGGAUCAGACGACUCGCCCGA
modifications: 2'-NH2 all C and U
Kd ([3]; hairpin): 2700 nM
Kd [6]: 3 nM

B6: F14.53 (ssRNA)
RNA: GGGAGGACGAUGCGGUCCCAGAGUCCCGUGAUGCGAAGAAUCCAUUAGUACCAGACAGACGACUCGCCCGA
modifications: 2'-NH2 all C and U
Kd [7]: 5200 nM
Kd [3]: 355 nM
Kd [8]: 0.097 nM

B7: F13.48 (ssRNA)
RNA: GGGAGGACGAUGCGGAAAGUUAUGAGUCCGUAUAUCAAGGUCGACAUGUGUGAAUCAGACGACUCGCCCGA
modifications: 2'-NH2 all C and U
Kd [9]: 15.9 nM
Kd ([7]; hairpin): 720 nM

B8: F13.51 (ssRNA)
RNA: GGGAGGACGAUGCGGAUGUAAAUCUAGGCAGAAACGUAGGGCAUCCACCGCAACGACAGACGACUCGCCCGA
modifications: 2'-NH2 all C and U
Kd [3]: 2000 nM
Kd [10]: 8.8 nM

B9: 11.24 (ssRNA)
RNA: GGGAAAAGCGAAUCAUACACAAGACGGCUGUGUGGUGUUGGAGCGUCAUAGUAGGAGUCGUCACGAACCAAGGCGCUCCGCCAGAGACCAACCGAGAA
modifications: 2'-NH2 all C and U
Kd [11]: 19.4 nM

B10: F13.32 (ssRNA)
RNA: GGGAGGACGAUGCGGCGCGUAUGUGUGAAAGCGUGUGCACGGAGGCGUCUACAAUCAGACGACUCGCCCGA
modifications: 2'-NH2 all C and U
Kd ([7]; hairpin): 17000 nM
Kd [12]: 15.7 nM

B11: F13.55 (ssRNA)
RNA: GGGAGGACGAUGCGGUGUCUCUCCUGACUUUUAUUCUUAGUUCGAGCUGUCCUGGCAGACGACUCGCCCGA
modifications: 2'-NH2 all C and U
Kd [7]: 5800 nM
Kd [3]: 49 nM
Kd [13]: 0.062 nM
